The values that follow come from publication PMC11285941.

A value given as a limit tells only on which side of the number the result lay.

In the experiment the target is ALTO with a NanoBiT tag at its N-terminus (Merkel cell polyomavirus). As to the kind of experiment: split reporter (BiFC, NanoBiT); NanoBiT in live HEK293 cells, 50 ng LgBiT + 50 ng SmBiT plasmid, 20-24 hours after transfection, NanoGlo reagent, luminescence; an interaction counts when the reading is tenfold above the LgBiT construct with the SmBiT negative control.

Turning to “STING-LgBiT (from UniProt Q86WV6 1-379) (natural protein)”, the luminescence against the LgBiT-tagged construct with the SmBiT negative control is greater than 10 fold.

B1: LgBiT-TBK1 (enzyme)
chain: MQSTSNHLWLLSDILGQGATANVFRGRHKKTGDLFAIKVFNNISFLRPVDVQMREFEVLKKLNHKNIVKLFAIEEETTTRHKVLIMEFCPCGSLYTVLEEPSNAYGLPESEFLIVLRDVVGGMNHLRENGIVHRDIKPGNIMRVIGEDGQSVYKLTDFGAARELEDDEQFVSLYGTEEYLHPDMYERAVLRKDHQKKYGATVDLWSIGVTFYHAATGSLPFRPFEGPRRNKEVMYKIITGKPSGAISGVQKAENGPIDWSGDMPVSCSLSRGLQVLLTPVLANILEADQEKCWGFDQFFAETSDILHRMVIHVFSLQQMTAHKIYIHSYNTATIFHELVYKQTKIISSNQELIYEGRRLVLEPGRLAQHFPKTTEENPIFVVSREPLNTIGLIYEKISLPKVHPRYDLDGDASMAKAITGVVCYACRIASTLLLYQELMRKGIRWLIELIKDDYNETVHKKTEVVITLDFCIRNIEKTVKVYEKLMKINLEAAELGEISDIHTKLLRLSSSQGTIETSLQDIDSRLSPGGSLADAWAHQEGTHPKDRNVEKLQVLLNCMTEIYYQFKKDKAERRLAYNEEQIHKFDKQKLYYHATKAMTHFTDECVKKYEAFLNKSEEWIRKMLHLRKQLLSLTNQCFDIEEEVSKYQEYTNELQETLPQKMFTASSGIKHTMTPIYPSSNTLVEMTLGMKKLKEEMEGVVKELAENNHILERFGSLTMDGGLRNVDCL
Take B1: the luminescence against the LgBiT-tagged construct with the SmBiT negative control was greater than 10 fold.
